In article PMC5386588:

Molecular target: PNR hinge-LBD (131–410) (human) (UniProt Q9Y5X4)
Assay: two-hybrid; as a1, yeast cultured in the presence of the cognate ligand of the AAD partner (T3 for TRβ)

Sequence of UniProt Q9Y5X4 (Q9Y5X4 131-410): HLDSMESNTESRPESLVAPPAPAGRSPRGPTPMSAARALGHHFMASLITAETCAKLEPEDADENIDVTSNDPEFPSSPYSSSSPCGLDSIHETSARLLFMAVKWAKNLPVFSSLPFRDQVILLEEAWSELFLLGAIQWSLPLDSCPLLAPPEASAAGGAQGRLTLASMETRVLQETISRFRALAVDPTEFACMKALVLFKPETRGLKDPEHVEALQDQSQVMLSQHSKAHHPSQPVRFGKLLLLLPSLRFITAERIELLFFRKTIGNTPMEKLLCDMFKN

- fold induction of reporter activity by T3: 20 fold
Substance: near full-length VP16-TRβ1 construct (from UniProt P10828 1-461) (domain or fragment)
